Data on 15 molecules can be found in US20210301029A1 (LYVGEN BIOPHARMA, published 2021).

In experiment [1] the target is T1, human FcγRI (human, UniProt P12314 16-374).
T1 construct: whole, on cells; also called CD64
The experiment in a line: FACS on CHO cells expressing human FcγRI (MFI). As to the method:
(§1) For FACS analysis of the IgG mutants' binding to different FcγRs, FcγR overexpressing CHO cells were harvested using trypsin-EDTA and were suspended in cold staining buffer (3% BSA in PBS). Test IgG mutants, which were diluted in staining buffer, were added into the cells. The mixture was incubated at 4° C. for 2 hours, and then washed twice with cold staining buffer and re-suspended in PE-labeled anti-human IgG followed by incubation at 4° C. for 2 hours. The mixture was washed twice with staining buffer and re-suspended in 2% PFA in PBS for FACS.

Experiment [2] addresses T2, human FcγRIIB (human, UniProt P31994 43-310).
T2 construct: whole, on cells; also called CD32b; FcγR2B
T2 sequence (looked up): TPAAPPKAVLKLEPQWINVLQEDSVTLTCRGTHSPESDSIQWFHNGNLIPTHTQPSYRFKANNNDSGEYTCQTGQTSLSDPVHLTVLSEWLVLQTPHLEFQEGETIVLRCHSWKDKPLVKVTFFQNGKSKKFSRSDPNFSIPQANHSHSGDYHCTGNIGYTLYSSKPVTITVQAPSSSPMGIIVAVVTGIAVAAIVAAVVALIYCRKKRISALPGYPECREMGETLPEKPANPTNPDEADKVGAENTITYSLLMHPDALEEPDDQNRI
Kind of experiment: FACS on CHO cells expressing human FcγRIIB (MFI). As to the method: as §1

Experiment [3] addresses T3, human FcγRIII (human, UniProt P08637 17-254).
T3 construct: whole, on cells; also called FcγRIIIA; CD16a
The experiment in a line: FACS on CHO cells expressing human FcγRIIIA (MFI). The procedure: as §1

T1 sequence (P12314 16-374): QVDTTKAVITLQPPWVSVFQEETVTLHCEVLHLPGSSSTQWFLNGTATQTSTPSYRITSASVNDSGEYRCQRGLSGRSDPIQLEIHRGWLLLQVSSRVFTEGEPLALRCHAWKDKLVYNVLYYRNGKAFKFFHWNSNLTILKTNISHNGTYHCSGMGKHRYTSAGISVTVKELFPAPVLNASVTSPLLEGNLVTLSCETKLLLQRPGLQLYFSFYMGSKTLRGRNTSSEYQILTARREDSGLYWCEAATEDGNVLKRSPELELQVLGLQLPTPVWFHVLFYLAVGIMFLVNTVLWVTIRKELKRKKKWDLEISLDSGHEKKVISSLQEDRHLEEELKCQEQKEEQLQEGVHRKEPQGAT
T3 sequence (P08637 17-254): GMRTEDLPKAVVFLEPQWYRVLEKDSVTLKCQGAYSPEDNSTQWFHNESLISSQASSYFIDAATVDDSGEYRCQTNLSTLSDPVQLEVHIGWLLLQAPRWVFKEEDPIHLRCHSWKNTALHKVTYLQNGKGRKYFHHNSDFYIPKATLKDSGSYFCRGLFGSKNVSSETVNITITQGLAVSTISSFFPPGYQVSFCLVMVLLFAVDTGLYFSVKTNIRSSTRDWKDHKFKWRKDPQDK

B1: 383-huIgG2m19 (antibody)
heavy: not shown
light: DIQMTQSPSSVSASVGDRVTITCRASQGIYSWLAWYQQKPGKAPNLLIYTASTLQSGVPSRFSGSGSGTDFTLTISSLQPEDFATYYCQQANIFPLTFGGGTKVEIKRTVAAPSVFIFPPSDEQLKSGTASVVCLLNNFYPREAKVQWKVDNALQSGNSQESVTEQDSKDSTYSLSSTLTLSKADYEKHKVYACEVTHQGLSSPVTKSFNRGEC
As for B1, the figures for the binding result in experiment [1], in experiment [2] and in experiment [3] were “no binding (tested: 30 µg/mL)”, “binds” and “no binding (tested: 30 µg/mL)”, respectively.

B2: 383-huIgG4m20 (antibody)
heavy: not shown
light: B1 light
Turning to B2, the binding result in experiment [1], in experiment [2] and in experiment [3] was “no binding (tested: 30 µg/mL)” in each case.

B3: 383-huIgG2m44 (antibody)
heavy: not shown
light: B1 light
For B3, the results for the binding result in experiment [1], in experiment [2] and in experiment [3] were “no binding (tested: 30 µg/mL)”, “binds” and “no binding (tested: 30 µg/mL)”, respectively.

B4: 383-huIgG2m20 (antibody)
heavy: not shown
light: B1 light
notes: also called 383-G2m20; 383-IghuG2m20
For the molecule B4, the binding result in experiment [1] is “no binding (tested: 30 µg/mL)”; in experiment [2] it was “binds”; in experiment [3], “no binding (tested: 30 µg/mL)”.

B5: 383-huIgG2mAA (antibody)
heavy: not shown
light: B1 light
On to B5, for which the binding result in experiment [1] is “no binding (tested: 30 µg/mL)”; in experiment [2], “binds”; in experiment [3], “no binding (tested: 30 µg/mL)”.

B6: 383-huIgG4SP (antibody)
heavy chain: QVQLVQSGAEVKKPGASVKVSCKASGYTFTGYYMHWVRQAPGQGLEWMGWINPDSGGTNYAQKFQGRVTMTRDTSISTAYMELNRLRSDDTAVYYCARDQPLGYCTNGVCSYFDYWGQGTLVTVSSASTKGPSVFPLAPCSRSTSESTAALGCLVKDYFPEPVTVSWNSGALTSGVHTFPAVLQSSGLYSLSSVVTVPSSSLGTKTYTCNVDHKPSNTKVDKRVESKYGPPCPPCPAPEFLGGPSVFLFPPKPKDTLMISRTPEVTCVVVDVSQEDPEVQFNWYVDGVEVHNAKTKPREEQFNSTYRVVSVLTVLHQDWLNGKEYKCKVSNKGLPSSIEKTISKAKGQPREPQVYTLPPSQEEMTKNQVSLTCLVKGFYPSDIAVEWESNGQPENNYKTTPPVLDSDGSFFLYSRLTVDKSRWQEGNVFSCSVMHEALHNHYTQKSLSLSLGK
light chain: B1 light
notes: anti-CD40 antibody 383 on a human IgG4 S228P constant region
On to B6, for which the binding result in experiment [1] is listed as “binds”; in experiment [2], “binds”; in experiment [3], “no binding (tested: 30 µg/mL)”.

B7: 383-huIgG1mAA (antibody)
heavy: not shown
light: B1 light
As to B7, the binding result in experiment [1], in experiment [2] and in experiment [3] was “no binding (tested: 30 µg/mL)” each time.

B8: 383-huIgG2m1 (antibody)
heavy: not shown
light: B1 light
Regarding B8, the binding result in experiment [1], in experiment [2] and in experiment [3] was “no binding (tested: 30 µg/mL)” in each case.

B9: 383-huIgG2m40 (antibody)
heavy: not shown
light: B1 light
notes: also called 383-G2m40; 383-IghuG2m40
As for B9, the binding result in experiment [1], in experiment [2] and in experiment [3] was “no binding (tested: 30 µg/mL)” in each case.

B10: 383-huIgG4m42 (antibody)
heavy: not shown
light: B1 light
Turning to B10, the binding result in experiment [1], in experiment [2] and in experiment [3] was “no binding (tested: 30 µg/mL)” in each case.

B11: 383-huIgG2G4 (antibody)
heavy: not shown
light: B1 light
B11: the values for the binding result in experiment [1], in experiment [2] and in experiment [3] were “no binding (tested: 30 µg/mL)”, “binds” and “no binding (tested: 30 µg/mL)”, respectively.

B12: 383-huIgG1m40 (antibody)
heavy: not shown
light: B1 light
Take B12: the binding result in experiment [1], in experiment [2] and in experiment [3] was “no binding (tested: 30 µg/mL)” throughout.

B13: 383-huIgG1m48 (antibody)
heavy: not shown
light: B1 light
Regarding B13, the binding result in experiment [1] is on record as “binds”; in experiment [2] it was “binds”; in experiment [3], “no binding (tested: 30 µg/mL)”.

B14: 383-huIgG1 N297A (antibody)
heavy: not shown
light: B1 light
notes: the entry already carries the change
B14: the binding result in experiment [1] is on record as “binds”; in experiment [2], “binds”; in experiment [3], “no binding (tested: 30 µg/mL)”.

B15: 383-huIgG4m41 (antibody)
heavy: not shown
light: B1 light
In the case of B15, the binding result in experiment [1], in experiment [2] and in experiment [3] was “no binding (tested: 30 µg/mL)” each time.
